PMC4265155, “A highly charged region in the middle domain of plant endoplasmic reticulum (ER)-localized heat-shock protein 90 is required for resistance to tunicamycin or high calcium-induced ER stresses” (Journal of Experimental Botany, 2014)

Substrate: Nc1ncnc2c1ncn2[C@@H]1O[C@H](COP(=O)(O)OP(=O)(O)OP(=O)(O)O)[C@@H](O)[C@H]1O
Assay: NADH-coupled ATPase assay (pyruvate kinase / lactate dehydrogenase)
Type: biochemical, Arabidopsis thaliana
Conditions: geldanamycin-sensitive activity, 25 mM HEPES pH 7.5, 5 mM MgCl2, 400 mM KCl, 0.03% Tween 20, 10% glycerol
Source text: NADH-coupled ATPase assay (pyruvate kinase / lactate dehydrogenase) on HSP90.7 (AtHSP90.7; mature form R73–L823)

[1] = HSP90.7^Δ22 (D488–G509 deleted by SpeI cleavage and religation; a SpeI-site scar may remain)

| Protein | Km [1] [µM] | kcat [1] [s⁻¹] | kcat/Km [1] [M⁻¹ s⁻¹] | Km [µM] | kcat [s⁻¹] | kcat/Km [M⁻¹ s⁻¹] |
| --- | --- | --- | --- | --- | --- | --- |
| HSP90.7 (AtHSP90.7; mature form R73–L823) (Arabidopsis thaliana; DEL488-509) (protein, predicted mature form R73-L823, signal peptide removed, vector p11, E. coli BL21(DE3)-pRIL, His6-tag cut with TEV protease, size-exclusion purified) RSNAEKFEFQAEVSRLMDIIINSLYSNKDIFLRELISNASDALDKIRFLALTDKDVLGEGDTAKLEIQIKLDKAKKILSIRDRGIGMTKEDLIKNLGTIAKSGTSAFVEKMQSSGDLNLIGQFGVGFYSAYLVADYIEVISKHNDDSQYVWESKANGKFAVSEDTWNEPLGRGTEIRLHLRDEAGEYLEESKLKELVKRYSEFINFPISLWASKEVETEVPVEEDESADEETETTSTEEEKEEDAEEEDGEKKQKTKKVKETVYEWELLNDVKAIWLRSPKEVTEEEYTKFYHSLSKDFTDEKPMAWSHFNAEGDVEFKAVLYVPPKAPHDLYESYYNSNKANLKLYVRRVFISDEFDELLPKYLSFLKGLVDSDTLPLNVSREMLQQHSSLKTIKKKLIRKALDMIRKLAEEDPQYTKFWNEFGKSVKLGIIEDAANRNRLAKLLRFETTKSDGKLTSLDQYIKRMKKSQKDIFYITGSSKEQLEKSPFLERLIKKGYEVIFFTDPVDEYLMQYLMDYEDKKFQNVSKEGLKVGKDSKDKELKEAFKELTKWWKGNLASENVDDVKISNRLADTPCVVVTSKFGWSANMERIMQSQTLSDANKQAYMRGKRVLEINPRHPIIKELKDRIASDPEDESVKETAQLMYQTALIESGFILTDPKDFAARIYNSVKSGLNISPDAVADEEIEAAEEPETSEATETKSDDLAGGLNIEAEPVEQQEENTKDEL | 440 ± 110 | 0.039 ± 0.0025 | 89 ± 27.8 | – | – | – |
| HSP90.7 (AtHSP90.7; mature form R73–L823) (Arabidopsis thaliana) (protein, predicted mature form R73-L823, signal peptide removed, vector p11, E. coli BL21(DE3)-pRIL, His6-tag cut with TEV protease, size-exclusion purified) RSNAEKFEFQAEVSRLMDIIINSLYSNKDIFLRELISNASDALDKIRFLALTDKDVLGEGDTAKLEIQIKLDKAKKILSIRDRGIGMTKEDLIKNLGTIAKSGTSAFVEKMQSSGDLNLIGQFGVGFYSAYLVADYIEVISKHNDDSQYVWESKANGKFAVSEDTWNEPLGRGTEIRLHLRDEAGEYLEESKLKELVKRYSEFINFPISLWASKEVETEVPVEEDESADEETETTSTEEEKEEDAEEEDGEKKQKTKKVKETVYEWELLNDVKAIWLRSPKEVTEEEYTKFYHSLSKDFTDEKPMAWSHFNAEGDVEFKAVLYVPPKAPHDLYESYYNSNKANLKLYVRRVFISDEFDELLPKYLSFLKGLVDSDTLPLNVSREMLQQHSSLKTIKKKLIRKALDMIRKLAEEDPDEIHDDEKKDVEKSGENDEKKGQYTKFWNEFGKSVKLGIIEDAANRNRLAKLLRFETTKSDGKLTSLDQYIKRMKKSQKDIFYITGSSKEQLEKSPFLERLIKKGYEVIFFTDPVDEYLMQYLMDYEDKKFQNVSKEGLKVGKDSKDKELKEAFKELTKWWKGNLASENVDDVKISNRLADTPCVVVTSKFGWSANMERIMQSQTLSDANKQAYMRGKRVLEINPRHPIIKELKDRIASDPEDESVKETAQLMYQTALIESGFILTDPKDFAARIYNSVKSGLNISPDAVADEEIEAAEEPETSEATETKSDDLAGGLNIEAEPVEQQEENTKDEL | – | – | – | 770 ± 180 | 0.0377 ± 0.00283 | 49 ± 15.2 |
